Source: patent US20220119522A1 (DENALI THERAPEUTICS, published 2022)
Changes are numbered by the printed parent chain. No end group written: not given here.

T1: human TREM2 on the cell surface (human, UniProt Q9NZC2 19-230)
T1 sequence: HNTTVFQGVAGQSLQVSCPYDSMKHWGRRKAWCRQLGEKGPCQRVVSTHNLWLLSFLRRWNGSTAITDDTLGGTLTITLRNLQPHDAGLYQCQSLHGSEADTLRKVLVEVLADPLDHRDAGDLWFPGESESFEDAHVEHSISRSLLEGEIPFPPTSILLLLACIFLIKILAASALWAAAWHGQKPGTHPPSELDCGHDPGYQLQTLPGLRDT

T2: His-tagged human TREM2 ECD (human, UniProt Q9NZC2 19-172)
T2 construct: Biacore and HDX say only recombinant human TREM2 (ECD); also called recombinant human TREM2; hTREM2
T2 sequence: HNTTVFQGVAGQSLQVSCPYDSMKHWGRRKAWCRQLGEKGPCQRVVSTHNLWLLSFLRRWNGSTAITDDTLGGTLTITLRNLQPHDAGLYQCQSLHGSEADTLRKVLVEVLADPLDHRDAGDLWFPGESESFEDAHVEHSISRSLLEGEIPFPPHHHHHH

T3: mouse TREM2 full length stalk region peptide (aa 131-169) (mouse, UniProt Q99NH8 131-169, biotinylated (site not stated))
T3 peptide (looked up): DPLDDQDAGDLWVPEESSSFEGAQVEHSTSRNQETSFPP

T4: human TREM2 truncated stalk peptide (aa 149-163) (human, also: biotinylated (site not given here))
T4 construct: also called Human TREM2 peptide (aa 149-163); truncated stalk peptide containing the ADAM10/17 cleavage site
T4 peptide: SFEDAHVEHSISRSL

T5: human TREM2 full length stalk region peptide (aa 129-172) (human, biotinylated (site not stated))
T5 construct: also called Human TREM2 peptide (aa 129-172); full-length TREM2 stalk peptide
T5 peptide: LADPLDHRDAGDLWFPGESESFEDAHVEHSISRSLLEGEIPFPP

B1: CL0020308 (antibody, V domains shown)
VH: QVQLKQSGPSLVQPSQSLSITCTVSGFSLTTYGIHWVRQSPGKGLEWLGVIWTGGSTAFNAAFMSRLSITKDNSKSQVFFKMNSLQADDTAIYYCAKVGFHSATDYWGQGTSVTVSS
VL: DVLMTQTPLSLPVTLGDQASISCRSSQNLVHSNGNTYLEWYLQKPGQSPKLLIYKVSNRFSGVPDRFSGSGSGTDFTLKISRVEAEDLGLYYCFQGSHVPFTFGSGTKLEIK
notes: also called Clone CL0020308
B2: CL0020309 (antibody, V domains shown)
VH: B1 VH with T31S, I34V, H35Q, S56T, A58D, M64K, T90S, V98I, T104V
VL: B1 VL with T14S, L29I, S81N, V99I, K108Q
notes: also called Clone CL0020309
B3: CL0020201 (antibody, V domains shown)
VH: EVQLQQSGPVLVKPGASVRMSCKPSGYTFTDYYMNWVKQSHGKSLEWIGSINPYTGGSSYNQNFRGKATLTVDKSSSTAYMELNSLTSEDSAVYYCARGSYYSNLGFAYWGQGTLVTVSA
VL: DVQLTQSPSFLTASPGETITINCRASKSISKYLAWYQEKPGKTNKLLISSGSTLQSGIPSRFSGSGSGTDFTLTISSLEPEDFAMYYCQQYSEYPFTFGSGTKLEIK
notes: also called Clone CL0020201
B4: CL0020205 (antibody, V domains shown)
VH: EVQLQQSGPVLVKPGASVKMSCKASGYTFTDYYVHWVKQSHGKSLEWIGLINPYTGTTSYNQRFRVKATLTVDKSSSTAYMEVNSLTSEDSAVYYCARSRVYYGSSLFAFWGQGTLVTVSA
VL: DIVMTQSPSSLSVSAGEKVTMSCKSSQSLLNSGNQKNYLAWYQQKPGQPPKLLIYGASTRESGVPDRFTGSGSGTDFTLTISSVQAEDLAVYYCQNDHSYPYTFGGGTKLEIK
notes: also called Clone CL0020205
B5: CL0020188-1 (antibody, V domains shown)
VH: EVQLVESGGGLVQPGGSLRLSCAASGFTFTDFYMSWVRQAPGKGLEWVSVIRNKANGYTAGYNPSVKGRFTISRDNSKNTLYLQMNSLRAEDTAVYYCARLTYGFDYWGQGTLVTVSS
VL: DIVMTQTPLSLPVTPGEPASISCQSSKSLLHSNGKTYLNWYLQKPGQSPQLLIYWMSTRASGVPDRFSGSGSGTDFTLKISRVEAEDVGVYYCQQFLEYPFTFGQGTKVEIK
notes: also called Clone CL0020188-1
B6: CL0020188-8 (antibody, V domains shown)
VH: B5 VH with A24G, L45P, V48L, G57A
VL: B5 VL with N33T
notes: Humanized variant of CL0020188 (hVH NA/3 m, hVL TG/graft); also called Clone CL0020188-8
B7: CL0020188-6 (antibody, V domains shown)
VH: B5 VH with A24G, L45P, V48L, G57A
VL: B5 VL
notes: Humanized variant of CL0020188 (hVH NA/3 m, hVL NG/graft); also called Clone CL0020188-6
B8: CL0020188-2 (antibody, V domains shown)
VH: B5 VH with A24G, L45P, V48L
VL: B5 VL
notes: Humanized variant of CL0020188 (hVH NG/3 m, hVL NG/graft); also called Clone CL0020188-2
B9: CL0020188-3 (antibody, V domains shown)
VH: B5 VH
VL: B5 VL with N33T
notes: Humanized variant of CL0020188 (hVH NG/graft, hVL TG/graft); also called Clone CL0020188-3
B10: CL0020188-5 (antibody, V domains shown)
VH: B5 VH with G57A
VL: B5 VL
notes: Humanized variant of CL0020188 (hVH NA/graft, hVL NG/graft); also called Clone CL0020188-5
B11: CL0020123-1 (antibody, V domains shown)
VH: QVQLVQSGAEVKKPGASVKVSCKASGFSIEDFYIHWVRQAPGQGLEWMGWIDPENGDSKYAPKFQGRATITADTSTSTAYMELSSLRSEDTAVYYCHADHGNYGSTMDYWGQGTLVTVSS
VL: DIQMTQSPSSLSASVGDRVTITCHASQHINVWLSWYQQKPGKAPKLLIYKASNLHTGVPSRFSGSGSGTDFTLTISSLQPEDFATYYCQQGQTYPRTFGQGTKVEIK
notes: Humanized variant of CL0020123 (hVH NGDS/2 m, Vk graft); also called Clone CL0020123-1
B12: CL0020123-2 (antibody, V domains shown)
VH: B11 VH with A68V
VL: B11 VL
notes: Humanized variant of CL0020123 (hVH NGDS/1 m, Vk graft); also called Clone CL0020123-2
B13: CL0020123-6 (antibody, V domains shown)
VH: B11 VH with N55Q, A68V
VL: B11 VL
notes: Humanized variant of CL0020123 (hVH QGDS/1 m, Vk graft); also called Clone CL0020123-6
B14: CL0020123-8 (antibody, V domains shown)
VH: B11 VH with N55Q, D57E, A68V
VL: B11 VL
notes: Humanized variant of CL0020123 (hVH QGES/1 m, Vk graft); also called Clone CL0020123-8
B15: CL0020123-3 (antibody, V domains shown)
VH: B11 VH with N55Q
VL: B11 VL
notes: Humanized variant of CL0020123 (hVH QGDS/2 m, Vk graft); also called Clone CL0020123-3
B16: CL0020123-4 (antibody, V domains shown)
VH: B11 VH with D57E
VL: B11 VL
notes: Humanized variant of CL0020123 (hVH NGES/2 m, Vk graft); also called Clone CL0020123-4

target: T1, human TREM2 on the cell surface; assay: cell-based or functional assay

Binder | NFAT EC50 (nM), plate coated mAb [nM] | Survival EC50 (nM), plate coated mAb, human macrophages [nM] | pSyk activation (HEK293-H6) EC50 (nM) | pSyk activation (human macrophages) EC50 (nM)
B1 | 51.9 | 8.9 | 33.4 | –
B2 | – | 2.69 | 40.6 | –
B3 | 81.7 | 6.6 | – | 9.5
B4 | 67.7 | 5.7 | – | 14.3

target: T2, His-tagged human TREM2 ECD; assay: SPR (Biacore), antibody captured via anti-human Fab, recombinant TREM2 ECD injected, 1:1 fit
Experimental: (§1) Surface plasmon resonance (Biacore™ 8K instrument) was used to measure anti-TREM2 antibody affinities for human and cynomolgus TREM2 ECD. Anti-TREM2 antibodies were captured using Human Fab Capture Kit (GE Healthcare Life Sciences, Catalog No. 28958325) on a Biacore Series S CM5 sensor chip (GE Healthcare Life Sciences, Catalog No. 29149604). Serial 3-fold dilutions of recombinant human or cynomolgus TREM2 were injected at a flow rate of 30 μL/min. Antibody binding was monitored for 300 seconds, followed by monitoring of antibody dissociation for 600+seconds in HBS-EP+ running buffer (GE Healthcare Life Sciences, Catalog No. BR100669). The binding response was corrected by subtracting the RU value from a blank flow cell. A 1:1 Languir model of simultaneous fitting of kₒₙ and koff was used for kinetics analysis.

Binder | Kd [nM]
B1 | 2.31
B2 | 5.31
B3 | 0.54
B4 | 1.52

target: T6, recombinant cynomolgus TREM2 ECD (cynomolgus); assay: as above
T6 construct: extracellular domain; also called cyno TREM2
Experimental: as §1

Binder | Kd [nM]
B1 | 2.28
B2 | 5.33
B3 | 13.4

target: T2, His-tagged human TREM2 ECD; assay: SPR (Biacore)
Experimental: as §1
(§2) Sequence optimization was conducted by searching within CDR sequences for residues that are susceptible to chemical modification (e.g., asparagine deamidation motifs (NG), aspartic acid isomerization motifs (DS), and potential oxidation residues (tryptophan (W) and methionine (M)) and making amino acid substitutions with conservative and germline residues to remove such sequence liabilities. Humanized and sequence-optimized variants of anti-TREM2 antibodies were then analyzed for binding kinetics using Biacore and dose-titrated cell binding to HEK293-H6 cells (see, Example 1 for representative protocols).

Binder | Kd [nM]
B5 | 2.3
B6 | 7.3
B7 | 4
B8 | 3.4
B9 | 6.8
B10 | 5.1
B11 | 0.14
B12 | 0.18
B13 | 0.32
B14 | 0.39
B15 | 0.4
B16 | 0.17

Target: T3, mouse TREM2 full length stalk region …
Assay: ELISA on biotinylated peptide captured by streptavidin; A450 normalised to isotype control
Experimental: (§3) TREM2 antibodies were evaluated for binding to human and mouse TREM2 stalk region peptides. […] Antibody binding to TREM2 stalk peptides was detected using standard sandwich ELISA. Briefly, a 96-well half-area ELISA plate was coated with streptavidin overnight at 4° C. The following day, biotinylated TREM2 stalk peptides diluted in 1% BSA/PBS were added to the plate and incubated for 1 hour. Antibodies diluted in 1% BSA/PBS were then added and incubated for 1 hour. Antibodies bound to peptide were detected with anti-human kappa-HRP secondary antibody (Bethyl Laboratories, Inc.) diluted in 1% BSA/PBS. Plates were assayed by reaction with a detection reagent (One-step TMB Ultra, Thermo) and measurement of absorbance at 450 nm (A450) by standard spectrophotometry instrumentation (BioTek®). Data are shown as normalized values (fold over background where background=isotype control).

Binder | fold over background (A450) [fold]
B1 | 7.9
B2 | 6.6
B3 | 5.4
B4 | 1.1

Target: T4, human TREM2 truncated stalk peptide (aa …)
Assay: as above
Experimental: as §3

Binder | fold over background (A450) [fold]
B3 | 1.7
B4 | 1.2

Target: T5, human TREM2 full length stalk region …
Assay: as above
Experimental: as §3

Binder | fold over background (A450) [fold]
B1 | 11
B2 | 11
B3 | 14
B4 | 1.3

target: T1, human TREM2 on the cell surface; assay: flow cytometry, dose-titrated binding to HEK293-H6 cells
Experimental: After incubation, the cells were centrifuged and washed in FACS buffer (PBS+0.5% BSA) twice. Mixed cells were resuspended in FACS buffer with human Trustain FcX solution (Biolegend, Catalog No. 422302) at a density of 10⁶/mL per cell line. The mixed cell lines were seeded at 200,000 cells per well in a 96-well round-bottom plate and incubated for 20 minutes at room temperature. After incubation, the cells were centrifuged and incubated with anti-TREM2 antibodies of about 0-200 nM dose titration for 45 minutes on ice. After incubation, the cells were centrifuged and washed with FACS buffer three times. […] After incubation, the cells were washed with FACS buffer three times, resuspended in 100 μL of FACS buffer, and analyzed by flow cytometry (BD FACSCanto II, San Jose, Calif.), for which 30,000 events were obtained for each sample. Mean fluorescence intensity per cells were calculated by FlowJo software and used for generating dose response binding curve.
as §2

Binder | EC50 [nM]
B5 | 0.42
B6 | 0.51
B7 | 0.31
B8 | 0.26
B9 | 0.64
B10 | 0.45
B11 | 0.25
B12 | 0.23
B13 | 0.29
B14 | 0.38
B15 | 0.24
B16 | 0.17

target: T1, human TREM2 on the cell surface; assay: cell binding, human macrophages, dose titration

Binder | EC50 [nM]
B1 | 0.6
B2 | 0.7
B4 | 2.1
